According to the supplement of paper PMC10724198:
± gives the standard deviation of the averaged measurements.

Tested on: Saccharomyces cerevisiae
Test: protein stability index of tFT-peptide fusion (C-terminal peptide) (PSI (0-1 scale)); higher = more stable (slower turnover)
Conditions: temperature: 30 C
Experimental: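 MPS profiling in S. cerevisiae of the yeast C-terminome library: the last 12 aa of each annotated ORF are fused to the C-terminus of a sfGFP-mCherry timer, after a GGGS linker. Cells are FACS-sorted into 8 mCherry/sfGFP bins and deep-sequenced. PSI runs from 0 (unstable) to 1 (stable); wild type and das1Δ backgrounds, two technical replicates each.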

[1] = genetic background: das1 deletion

## IAEEIISMFAEN [YNR064C C-terminal 12 aa]
[1]
  protein stability index: 0.692 ± 0.031
Genetic background: wild type
  protein stability index: 0.723 ± 0.016

## DEASGTPDEDML [GRR1 C-terminal 12 aa]
[1]
  protein stability index: 0.6796 ± 0.0046
Genetic background: wild type
  protein stability index: 0.693 ± 0.034

## TLQSEINISVKH [ENA5 C-terminal 12 aa]
[1]
  protein stability index: 0.671 ± 0.0081
Genetic background: wild type
  protein stability index: 0.6909 ± 0.0042

## RKFQPPPGFKRK [SMB1 C-terminal 12 aa]
[1]
  protein stability index: 0.724 ± 0.017
Genetic background: wild type
  protein stability index: 0.74 ± 0.047

## RKAAERDNMLTT [CTL1 C-terminal 12 aa]
[1]
  protein stability index: 0.704 ± 0.015
Genetic background: wild type
  protein stability index: 0.706 ± 0.0072

## EQHNVLDTKKNE [SPC2 C-terminal 12 aa]
[1]
  protein stability index: 0.687 ± 0.037
Genetic background: wild type
  protein stability index: 0.649 ± 0.029

## KIVIPDKFIQHI [HRD1 C-terminal 12 aa]
[1]
  protein stability index: 0.673 ± 0.025
Genetic background: wild type
  protein stability index: 0.706 ± 0.028

## QNLDENVWRTPI [SSP1 C-terminal 12 aa]
[1]
  protein stability index: 0.692 ± 0.011
Genetic background: wild type
  protein stability index: 0.672 ± 0.032

## GIDLNSIKWSGH [NFS1 C-terminal 12 aa]
[1]
  protein stability index: 0.718 ± 0.012
Genetic background: wild type
  protein stability index: 0.709 ± 0.012

## PYNFIQLLHQGL [HOF1 C-terminal 12 aa]
[1]
  protein stability index: 0.725 ± 0.011
Genetic background: wild type
  protein stability index: 0.709 ± 0.012

## IKTDSVHELLKK [MFM1 C-terminal 12 aa]
[1]
  protein stability index: 0.704 ± 0.018
Genetic background: wild type
  protein stability index: 0.696 ± 0.0083

## HGHHNSSTSGHK [PBP1 C-terminal 12 aa]
[1]
  protein stability index: 0.694 ± 0.015
Genetic background: wild type
  protein stability index: 0.714 ± 0.0077

## GGFLSFGGGYDE [AIM25 C-terminal 12 aa]
[1]
  protein stability index: 0.712 ± 0.034
Genetic background: wild type
  protein stability index: 0.726 ± 0.013

## VKPSQDNVDSKD [OPI1 C-terminal 12 aa]
[1]
  protein stability index: 0.687 ± 0.0096
Genetic background: wild type
  protein stability index: 0.668 ± 0.022

## LPLYYVYQCDMI [YDR094W C-terminal 12 aa]
[1]
  protein stability index: 0.6642 ± 0.0046
Genetic background: wild type
  protein stability index: 0.643 ± 0.052

## ELLYLIIAGLHI [FYV5 C-terminal 12 aa]
[1]
  protein stability index: 0.6959 ± 0.0029
Genetic background: wild type
  protein stability index: 0.7 ± 0.05

## VTGPHDRWYVVG [ATG14 C-terminal 12 aa]
[1]
  protein stability index: 0.76 ± 0.019
Genetic background: wild type
  protein stability index: 0.659 ± 0.024

## ILGNYRDIFKQA [RGA2 C-terminal 12 aa]
[1]
  protein stability index: 0.726 ± 0.014
Genetic background: wild type
  protein stability index: 0.266 ± 0.077

## VPEPGDQPLVQA [YPR078C C-terminal 12 aa]
[1]
  protein stability index: 0.725 ± 0.022
Genetic background: wild type
  protein stability index: 0.678 ± 0.023

## PVFTASQLRFAW [ESA1 C-terminal 12 aa]
[1]
  protein stability index: 0.738 ± 0.018
Genetic background: wild type
  protein stability index: 0.7148 ± 0.0046

## DTSLYRYRSYGY [PUF2 C-terminal 12 aa]
[1]
  protein stability index: 0.7007 ± 0.0045
Genetic background: wild type
  protein stability index: 0.683 ± 0.033

## LERIVGLLLMDM [MHF2 C-terminal 12 aa]
[1]
  protein stability index: 0.6675 ± 0.0051
Genetic background: wild type
  protein stability index: 0.651 ± 0.011

## PLTLISLLFAFI [YPS1 C-terminal 12 aa]
[1]
  protein stability index: 0.619 ± 0.021
Genetic background: wild type
  protein stability index: 0.612 ± 0.0015

## EIRNMVINSTKD [BFA1 C-terminal 12 aa]
[1]
  protein stability index: 0.713 ± 0.008
Genetic background: wild type
  protein stability index: 0.688 ± 0.021

## KKRRIHPTPVDL [CAC2 C-terminal 12 aa]
[1]
  protein stability index: 0.6974 ± 0.0037
Genetic background: wild type
  protein stability index: 0.724 ± 0.027

## HTRRAFLIPFVF [TSC13 C-terminal 12 aa]
[1]
  protein stability index: 0.547 ± 0.02
Genetic background: wild type
  protein stability index: 0.241 ± 0.011

## LGQAVVKAINFA [YBR277C C-terminal 12 aa]
[1]
  protein stability index: 0.6797 ± 0.0059
Genetic background: wild type
  protein stability index: 0.702 ± 0.041

## LKSIYTSERITI [RAD61 C-terminal 12 aa]
[1]
  protein stability index: 0.707 ± 0.04
Genetic background: wild type
  protein stability index: 0.667 ± 0.025

## CTIQKMREKANT [YNL028W C-terminal 12 aa]
[1]
  protein stability index: 0.677 ± 0.027
Genetic background: wild type
  protein stability index: 0.723 ± 0.062

## LVIDQITQLRQQ [COG1 C-terminal 12 aa]
[1]
  protein stability index: 0.6966 ± 0.0015
Genetic background: wild type
  protein stability index: 0.6158 ± 0.0047

## SVSDPVKSEDSS [NCB2 C-terminal 12 aa]
[1]
  protein stability index: 0.68 ± 0.034
Genetic background: wild type
  protein stability index: 0.689 ± 0.033

## KDSELNIKSSKL [STR3 C-terminal 12 aa]
[1]
  protein stability index: 0.78159 ± 0.00043
Genetic background: wild type
  protein stability index: 0.79 ± 0.053

## CEVYCSKNSCAS [YBR099C C-terminal 12 aa]
[1]
  protein stability index: 0.6895 ± 0.0012
Genetic background: wild type
  protein stability index: 0.661 ± 0.031

## LELCKLASNNLE [RRI2 C-terminal 12 aa]
[1]
  protein stability index: 0.6896 ± 0.0022
Genetic background: wild type
  protein stability index: 0.703 ± 0.04

## HCLSNSASHSCG [YGR018C C-terminal 12 aa]
[1]
  protein stability index: 0.675 ± 0.014
Genetic background: wild type
  protein stability index: 0.64 ± 0.014

## NIRIVNGLQNTR [TIM8 C-terminal 12 aa]
[1]
  protein stability index: 0.712 ± 0.014
Genetic background: wild type
  protein stability index: 0.669 ± 0.011

## DHKVGAQVSYKY [MAD2 C-terminal 12 aa]
[1]
  protein stability index: 0.71 ± 0.0075
Genetic background: wild type
  protein stability index: 0.675 ± 0.017

## KTITIGNLPNSI [UGA2 C-terminal 12 aa]
[1]
  protein stability index: 0.7224 ± 0.0026
Genetic background: wild type
  protein stability index: 0.715 ± 0.026

## SSANIDINSIAK [SPO22 C-terminal 12 aa]
[1]
  protein stability index: 0.7 ± 0.04
Genetic background: wild type
  protein stability index: 0.729 ± 0.11

## KKKAINEKAEQN [SEC62 C-terminal 12 aa]
[1]
  protein stability index: 0.679 ± 0.018
Genetic background: wild type
  protein stability index: 0.635 ± 0.02

## SSIQDLLSKLAN [RTT103 C-terminal 12 aa]
[1]
  protein stability index: 0.691 ± 0.02
Genetic background: wild type
  protein stability index: 0.7927 ± 0.0052
